B1: CPEB3 Ribozyme (parent)
chain: GGGGGCCACAGCAGAAGCGUUCACGUCGCGGCCCCUGUCAGAUUCUGGUGAAUCUGCGAAUUCUGCUGU

Variants of: B1
Assay: self-cleavage, relative activity (ratio to wild type); higher = more cleavage; co-transcriptional

Variant	self-cleavage
G3A G56U	0.467
G3A G56A	0.26
G3A G11A	0.48
G3A G11U	0.402
G3A G11C	0.33
G2U U43G	0.0816
G2U U43C	0.0688
G2U U43A	0.118
G3A C9A	0.895
G3A C9G	0.858
G2U G65U	0.0743
G2U G65C	0.0564
G2U G37A	0.0373
G2U G37U	0.0465
G3A A52U	0.556
G3A A52G	0.563
G3A C39A	0.328
G3A C39U	0.273
G2U U26G	0.0848
G2U U21G	0.0462
G2U U21A	0.0838

Variant	self-cleavage
G2U G68C	0.1
G2U G68U	0.106
G2U G68A	0.128
G3A G41A	0.222
G3A G41U	0.277
G2U U53G	0.0896
G2U U53C	0.0669
G2U U53A	0.0959
G3A G30A	0.181
G3A G30C	0.103
G2U U55A	0.0595
G2U G41A	0.0653
G2U G31U	0.0654
G2U G31C	0.061
G2U U64A	0.0856
G3A C66U	0.724
G3A C66G	0.597
G3A C66A	0.442
G3A A40G	0.455
G2U U38G	0.0441
G2U U69G	0.109

Variant	self-cleavage
G2U U61C	0.0727
G3A C54G	0.25
G3A C54A	0.243
G3A C54U	0.602
G3A A60U	0.123
G3A G68A	0.852
G3A G68U	0.86
G3A G68C	0.764
G3A G28C	0.0675
G3A G28A	0.113
G3A G28U	0.104
G3A C33G	0.153
G3A C33U	0.231
G3A G47C	0.658
G3A G47U	0.682
G3A G50A	0.645
G3A A42G	0.584
G3A A42C	0.338
G3A A42U	0.394
G3A G4U	0.0692
G3A G4C	0.165

Variant	self-cleavage
G3A G4A	0.204
G3A C35G	0.0971
G3A C35U	0.215
G2U G48A	0.0985
G2U G48U	0.0675
G3A U26G	0.29
G3A U26A	0.187
G3A U20A	0.0708
G2U G30U	0.0322
G2U U20C	0.0329
G2U U20G	0.0171
G3A G17A	0.0767
G3A G17C	0.0537
G3A G17U	0.0783
G3A G48A	0.69
G3A G48U	0.722
G3A C18U	0.349
G2U U46C	0.0853
G2U U46A	0.0474
G3A G37A	0.143

Source: the RNAGym collection of RNA variant scans (doi:10.7554/elife.80360)
